# From the supplement of paper PMC10567573
# B1: FAM9B (parent)
# chain: EDLTAKRKRMKMDKTCSKTKNKSK
# Variants of: B1
# Assay: protein stability index of a GFP-peptide fusion (GPS, HEK-293T) (PSI 1-6); higher = more stable
# Details: c terminus: a fixed tail appended
# 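Also: lentivirally expressed fusions sorted by FACS into six bins by GFP to DsRed ratio, PSI derived from sequencing read proportions per bin multiplied by bin number.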
row,Variant,protein stability index
1,EDLEAKRKRMKMDKTCSKTKNKSK,5
2,EDLAAKRKRMKMDKTCSKTKNKSK,5.25
3,EDLGAKRKRMKMDKTCSKTKNKSK,5.14
4,EDLSAKRKRMKMDKTCSKTKNKSK,4.74
5,EDLIAKRKRMKMDKTCSKTKNKSK,4.58
6,EDLQAKRKRMKMDKTCSKTKNKSK,4.7
7,EDLFAKRKRMKMDKTCSKTKNKSK,4.72
8,EDLMAKRKRMKMDKTCSKTKNKSK,4.45
9,EDLHAKRKRMKMDKTCSKTKNKSK,5.29
10,EDLYAKRKRMKMDKTCSKTKNKSK,4.21
11,EDLPAKRKRMKMDKTCSKTKNKSK,4.96
12,EDLDAKRKRMKMDKTCSKTKNKSK,5.5
13,EDLVAKRKRMKMDKTCSKTKNKSK,5.02
14,EDLRAKRKRMKMDKTCSKTKNKSK,4.64
15,EDRTAKRKRMKMDKTCSKTKNKSK,5.17
16,EDGTAKRKRMKMDKTCSKTKNKSK,5.66
17,EDNTAKRKRMKMDKTCSKTKNKSK,5.15
18,EDQTAKRKRMKMDKTCSKTKNKSK,5.51
19,EDDTAKRKRMKMDKTCSKTKNKSK,5.5
20,EDSTAKRKRMKMDKTCSKTKNKSK,4.99
21,EDPTAKRKRMKMDKTCSKTKNKSK,5.39
22,EDWTAKRKRMKMDKTCSKTKNKSK,4.6
23,EDETAKRKRMKMDKTCSKTKNKSK,5.77
24,EDTTAKRKRMKMDKTCSKTKNKSK,5.33

row,Variant,protein stability index
1,EDATAKRKRMKMDKTCSKTKNKSK,4.91
2,EDHTAKRKRMKMDKTCSKTKNKSK,5.43
3,EDYTAKRKRMKMDKTCSKTKNKSK,5.23
4,EDFTAKRKRMKMDKTCSKTKNKSK,4.98
5,EDCTAKRKRMKMDKTCSKTKNKSK,5.09
6,EDVTAKRKRMKMDKTCSKTKNKSK,5.63
7,EDKTAKRKRMKMDKTCSKTKNKSK,5.4
8,EDMTAKRKRMKMDKTCSKTKNKSK,5.13
9,EDLTAKLKRMKMDKTCSKTKNKSK,4.87
10,EDLTAKQKRMKMDKTCSKTKNKSK,5.32
11,EDLTAKAKRMKMDKTCSKTKNKSK,5.09
12,EDLTAKDKRMKMDKTCSKTKNKSK,5.41
13,EDLTAKEKRMKMDKTCSKTKNKSK,5.45
14,EDLTAKHKRMKMDKTCSKTKNKSK,4.95
15,EDLTAKCKRMKMDKTCSKTKNKSK,5.26
16,EDLTAKVKRMKMDKTCSKTKNKSK,4.87
17,EDLTAKMKRMKMDKTCSKTKNKSK,4.75
18,EDLTAKPKRMKMDKTCSKTKNKSK,5.27
19,EDLTAKSKRMKMDKTCSKTKNKSK,5.3
20,EDLTAKWKRMKMDKTCSKTKNKSK,4.33
21,EDLTAKNKRMKMDKTCSKTKNKSK,4.93
22,EDLTAKKKRMKMDKTCSKTKNKSK,5.16
23,EDLTAKIKRMKMDKTCSKTKNKSK,4.82
24,EDLTAKYKRMKMDKTCSKTKNKSK,5.11

row,Variant,protein stability index
1,EDLTAKFKRMKMDKTCSKTKNKSK,4.69
2,EDLTAKTKRMKMDKTCSKTKNKSK,5.46
3,EDLTAKGKRMKMDKTCSKTKNKSK,5.54
4,KDLTAKRKRMKMDKTCSKTKNKSK,4.89
5,FDLTAKRKRMKMDKTCSKTKNKSK,4.53
6,CDLTAKRKRMKMDKTCSKTKNKSK,3.08
7,VDLTAKRKRMKMDKTCSKTKNKSK,4.96
8,ADLTAKRKRMKMDKTCSKTKNKSK,4.77
9,IDLTAKRKRMKMDKTCSKTKNKSK,4.08
10,WDLTAKRKRMKMDKTCSKTKNKSK,3.89
11,RDLTAKRKRMKMDKTCSKTKNKSK,4.64
12,DDLTAKRKRMKMDKTCSKTKNKSK,5.32
13,TDLTAKRKRMKMDKTCSKTKNKSK,4.91
14,QDLTAKRKRMKMDKTCSKTKNKSK,4.99
15,HDLTAKRKRMKMDKTCSKTKNKSK,4.87
16,MDLTAKRKRMKMDKTCSKTKNKSK,4.15
17,LDLTAKRKRMKMDKTCSKTKNKSK,4.38
18,SDLTAKRKRMKMDKTCSKTKNKSK,5.16
19,NDLTAKRKRMKMDKTCSKTKNKSK,5.29
20,GDLTAKRKRMKMDKTCSKTKNKSK,4.86
21,YDLTAKRKRMKMDKTCSKTKNKSK,3.72
22,PDLTAKRKRMKMDKTCSKTKNKSK,4.9
23,EDLTAKRDRMKMDKTCSKTKNKSK,5.29
24,EDLTAKRERMKMDKTCSKTKNKSK,4.99

row,Variant,protein stability index
1,EDLTAKRFRMKMDKTCSKTKNKSK,4.58
2,EDLTAKRARMKMDKTCSKTKNKSK,4.94
3,EDLTAKRCRMKMDKTCSKTKNKSK,5.09
4,EDLTALRKRMKMDKTCSKTKNKSK,4.85
5,EDLTAIRKRMKMDKTCSKTKNKSK,5.1
6,EDLTAVRKRMKMDKTCSKTKNKSK,4.65
7,EDLTACRKRMKMDKTCSKTKNKSK,4.78
8,EDLTAHRKRMKMDKTCSKTKNKSK,5.37
9,EDLTASRKRMKMDKTCSKTKNKSK,5.26
10,EDLTARRKRMKMDKTCSKTKNKSK,5.33
11,EDLTAFRKRMKMDKTCSKTKNKSK,4.42
12,EDLTAQRKRMKMDKTCSKTKNKSK,5.12
13,EDLTAWRKRMKMDKTCSKTKNKSK,4.29
14,EDLTATRKRMKMDKTCSKTKNKSK,4.68
15,EDLTANRKRMKMDKTCSKTKNKSK,4.85
16,EDLTAYRKRMKMDKTCSKTKNKSK,5.19
17,EDLTAPRKRMKMDKTCSKTKNKSK,5.59
18,EDLTAMRKRMKMDKTCSKTKNKSK,4.67
19,EDLTAERKRMKMDKTCSKTKNKSK,5.7
20,EDLTADRKRMKMDKTCSKTKNKSK,5.33
21,EDLTAARKRMKMDKTCSKTKNKSK,4.87
22,EDLTAGRKRMKMDKTCSKTKNKSK,5.69
